According to PMC4043723:

Columns and labels:
Assay in all cases: voltammetric sandwich aptasensor
[1] = target: horseradish peroxidase (horseradish, UniProt P00433 31-338)
[2] = target: prostate-specific antigen (PSA) (UniProt P07288 25-261)
[3] = target: thrombin (UniProt P00734;P00734 328-363;364-622)

Measured: binding result

Chain of prostate-specific antigen (PSA) (P07288 25-261): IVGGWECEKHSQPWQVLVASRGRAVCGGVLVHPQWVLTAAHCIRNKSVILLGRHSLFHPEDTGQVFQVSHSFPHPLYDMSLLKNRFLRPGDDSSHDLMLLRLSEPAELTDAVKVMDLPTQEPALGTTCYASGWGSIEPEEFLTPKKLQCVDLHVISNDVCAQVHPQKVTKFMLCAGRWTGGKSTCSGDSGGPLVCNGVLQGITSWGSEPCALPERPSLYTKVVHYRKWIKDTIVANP
Chain of horseradish peroxidase (P00433 31-338): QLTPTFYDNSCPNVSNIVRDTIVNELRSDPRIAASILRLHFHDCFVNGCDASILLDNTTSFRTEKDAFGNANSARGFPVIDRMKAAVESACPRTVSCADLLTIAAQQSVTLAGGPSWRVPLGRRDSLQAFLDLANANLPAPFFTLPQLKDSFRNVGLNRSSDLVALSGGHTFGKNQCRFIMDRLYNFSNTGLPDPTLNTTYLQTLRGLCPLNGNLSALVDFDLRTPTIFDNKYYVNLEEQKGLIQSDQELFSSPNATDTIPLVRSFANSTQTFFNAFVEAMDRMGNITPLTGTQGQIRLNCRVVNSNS

B1: anti-rHuEPO aptamer (39-base) (ssDNA)
DNA: GATTGAAAGGTCTGTTTTTGGGGTTGGTTTGGGTCAATA
modifications: 5'-SH-(CH2)6
no binding: all assays above
